Laboratory results published in patent EP4342487A2, “PHARMACEUTICAL COMPOSITION COMPRISING GIP DERIVATIVE OR LONG-ACTING CONJUGATE THEREOF FOR PREVENTING OR TREATING PULMONARY DISEASE” (Hanmi Pharm. Co., Ltd., priority 2021, dated 2022).
Where no end group is shown, it is not given here. [ ]: non-standard residue; d: D form. Aib = CC(C)(N)C(=O)O

T1: human GIP receptor (human, UniProt P48546 22-466)
T1 sequence (looked up): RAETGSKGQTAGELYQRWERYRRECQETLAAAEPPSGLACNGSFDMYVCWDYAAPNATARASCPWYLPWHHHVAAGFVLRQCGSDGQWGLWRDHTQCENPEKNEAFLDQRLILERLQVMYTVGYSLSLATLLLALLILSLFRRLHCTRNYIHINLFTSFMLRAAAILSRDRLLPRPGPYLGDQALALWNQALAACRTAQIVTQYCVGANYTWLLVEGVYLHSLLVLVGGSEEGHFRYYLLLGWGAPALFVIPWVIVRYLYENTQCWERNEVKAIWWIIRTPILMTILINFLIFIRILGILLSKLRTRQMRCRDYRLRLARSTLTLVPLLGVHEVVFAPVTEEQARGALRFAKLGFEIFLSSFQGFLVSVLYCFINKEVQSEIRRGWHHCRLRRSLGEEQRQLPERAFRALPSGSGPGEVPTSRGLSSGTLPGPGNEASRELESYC

B1: GIP derivative of SEQ ID NO: 11 (peptide)
peptide: Y[Aib]EGTFISDYSIAMDAIAQQDFVNWLLAQKGKKNDWKHNITQC
modifications: not fully specified; printed as YAibEGT FISDYSIAMDAIAQQDFVNWLLAQKGKKNDWKHNITQC

Molecular target: T1, human GIP receptor
Test: cell-based or functional assay

| Binder | In vitro activity (%) of GIP derivatives compared to human native GIP in human GIP receptors (EC50 from accumulated cAMP, CHO cells expressing the human GIP receptor) [%] |
| --- | --- |
| Y[Aib]EGTFISDYSIYLDKQAA[Aib]EFVNWLL[Aib]GGPSSGAPPPSC (not fully specified) [GIP derivative of SEQ ID NO: 20] | 75.3 |
| Y[Aib]EGTFISDYSIAMDKIAQQDFVNWLLAQKPSSGAPPPSC (not fully specified) [GIP derivative of SEQ ID NO: 15] | 31.1 |
| Y[Aib]EGTFISDYSIYLDAQAAKEFIAWLLAGGPSSGAPPPSC (not fully specified) [GIP derivative of SEQ ID NO: 10] | 13.9 |
| Y[Aib]EGTFISDYSIYLDAQAA[Aib]EFVNWLLAQKC (not fully specified) [GIP derivative of SEQ ID NO: 14] | 17.4 |
| Y[Aib]EGTFISDYSIYLDKQAA[Aib]EFVNWLL[Aib]GHPSSGAPPPSC (not fully specified) [GIP derivative of SEQ ID NO: 19] | 66.7 |
| Y[Aib]EGTFISDYSIAMDAIAQQDFVNWLLAQKPSSGAPPPSC (not fully specified) [GIP derivative of SEQ ID NO: 1] | 49.3 |
| Y[Aib]EGTFISDYSIYLDKQAA[Aib]EFVNWLLAQKC (not fully specified) [GIP derivative of SEQ ID NO: 13] | 31.1 |
| Y[Aib]EGTFISDYSI[Aib]LDKQAA[Aib]EFVNWLL[Aib]GGPSSGAPPPSC (not fully specified) [GIP derivative of SEQ ID NO: 21] | 123 |
| Y[Aib]EGTFISDYSIAMDGIAQQDFVNWLLAQKPSSGAPPPSC (not fully specified) [GIP derivative of SEQ ID NO: 16] | 11.3 |
| Y[Aib]EGTFISDYSIALEKQAQQDFVNWLLAGGPSSGAPPPSC (not fully specified) [GIP derivative of SEQ ID NO: 17] | 111 |
| Y[Aib]EGTFISDYSIYLDKQAAQEFVNWLLAQKPSSGAPPPSC (not fully specified) [GIP derivative of SEQ ID NO: 18] | 13.6 |
| B1 | 122 |
| Y[Aib]EGTFISDYSIAMDAIAQQDFVNWLLAGGPSSGAPPPSC (not fully specified) [GIP derivative of SEQ ID NO: 2] | 13.9 |
